Assay results reported in the nanobody polyreactivity screen of Harvey et al. (2022).

Assay: yeast display, Sf9 membrane polyspecificity reagent, FACS + sequencing; frameworks hold sequencing errors
How it was run: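 A synthetic nanobody library was expressed on Saccharomyces cerevisiae BJ5465 by galactose induction for 36–48 hours. The library was stained for 1 hour at 4 °C with 10% biotinylated, detergent-solubilized Sf9 membrane reagent and enriched with streptavidin microbeads before FACS. Low and high (top ~1%) gates were set on anti-HA fluorescence for expression and streptavidin fluorescence for reagent binding, and each polyreactivity label reflects the gate of origin.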

Sequence | polyreactivity (PSR sort gate)
QVQLVESGGGLVQAGGSLRLSCAASGTIFYDNDMGLYRQAPGKERELVAAISWSASDTYYADSVKGRFTISRDNAKNTVFLQMMSLKPEDTAVYYCNAEVYEWYVVYSALDYWGQVTQVTVSS | low polyreactivity
QVQLVESGGGLVQAGGSLRLSCAASGTLSSYAMGWYRQAPGKERELVAAISLSGGSTYADSVKGRFTISRDNAKNTVYLQMNSLKPEDTAVYYCAKDWDVDITWSFSIYNYWGQGTQVTVSS | low polyreactivity
QVQLVESGGGLVQAGGSLRLSCAASGTTFGYNAMGWYRQAPGKERELVAAITSGGSTNYADSVKGRFTISRDNAKNTVYLQMNSLKPEDTAVYYCDKRGYYHYYWGQGTQVTVSS | high polyreactivity
QVQLVESGGGLVQAGGSLRLSCAASGTTFPKYAMGWYRQAPGKERELVAAITRGGRTYYADSVKGRFTISRDNANNTVYLQMNSLKPEDTAVYYCAVVGYARVGMYDYWGQGSQVTVSS | high polyreactivity
QVQLVESGGGLVQAGGSLRLSCAASGTTFTRYAMGWYRQAPGKERELVAAISRTGGSRTYYADSVKGRFTISRDNAKNTVYLHMNSLKPEDTAVYYCAKGYWRYLGFLYFFPARDYWGQGTQVTVSS | high polyreactivity
QVQLVESGGGLVQAGGSLRLSCAASGTTFYNYAMGWYRQAPGQERELVAAISKTGGSTYYADSVKGRFTISRDNAKNTVYLQMNSLKPEDTAVYYCNAVALYPYTTYHYWGQGTQVTVSS | high polyreactivity
QVQLVESGGGLVQAGGSLRLSCAASGTTYYNAMGWYRQAPGKERELVAAIRFRSGSTYYADSVKGRFTISRDNAKNTVFLQMNSLKPEDTAVYYCNIVPYRGYRRYGYWGQGTHVTVSS | high polyreactivity
QVQLVESGGGLVQAGGSLRLSCAASGVIFSLYAMGWYRQAPGKERELVAVITWSDGRTYYADSVKGRFTISRDNAKNTVYLQMNSLKPEDTAVYYCAAADWITEYDYWGQGTHVTVSS | low polyreactivity
QVQLVESGGGLVQAGGSLRLSCAASGVIFWEYAMGWYRQAPGKERELVAAISTSGGSTYYADSVKGRFTISRDNAKNTVYLQMISLKPEDTAVYYCAVDGWDDTYFRQDMDYWGQGTQVTVSS | low polyreactivity
QVQLVESGGGLVQAGGSLRLSCAASGVIFYDYAMGWYRQAPGKERELVAAISSGGSTNYADSVKGRFTISRDNAKNTVYLQMNSLKPEDTAVYYCAADDRSYATWKRDYDYWGQGTQVTVSS | low polyreactivity
QVQLVESGGGLVQAGGSLRLSCAASGVIFYRYAMGWYRQAPGKERELVAAITRSGGTTYYADSVKGRFTISRDNAKNTVYLQMNSLKPEDTAVYYCAARVTPGRNGGGYWGQGTQVTVSS | high polyreactivity
QVQLVESGGGLVQAGGSLRLSCAASGVILYFHAMGWYRQAPGKERELVAAITSDGGSTYYADSVKGRFTISRDDAKNTVYLQMNSLKPEDTAVYYCAADASTWYTEEYWGQGTQVTVSS | low polyreactivity
QVQLVESGGGLVQAGGSLRLSCAASGVNAMGWYRQAPGKEREIVAAITSIGGSTYYADSVKGRFTISRDNAKNTVSLQMNSLKPEDTAVYYCNTDRGPVKVSPLYESWGQGTQVTVSS | low polyreactivity
QVQLVESGGGLVQAGGSLRLSCAASGVTFIYYTMGWYRQAPGKERDLVATISRRGDSPYYADSVKGRFTISRDNAKNTVYLQMNSLKPEDTAVYYCNAVTRAAYWWTARSTDYDYWGQGTLVTVSS | high polyreactivity
QVQLVESGGGLVQAGGSLRLSCAASGVTFNYNAMGWYRQAPGKERELVATITGSTYYADSVKGRFTISRDNAKNTVYLQMNSLKPEDTAVYYCTADASLVLAEYDYWGQGTQVTVSS | low polyreactivity
QVQLVESGGGLVQAGGSLRLSCAASGVTFSLNTMGWYRQSPGKERELVAAINSGDSTYADSVKGRFTISRDNAKNTVYVQMNSLKPEDTAVYYCTADPDWWYPYNYWGQGTQVTVSS | low polyreactivity
QVQLVESGGGLVQAGGSLRLSCAASGYICVRYAMGWYRQAPGKEREFVAAISSSGGSTRYADSVKGRFTISRDNAKNTVYLQMNSLKPEDTAVYYCAATRVARHGSPMYYWGQGTQVTVSS | high polyreactivity
QVQLVESGGGLVQAGGSLRLSCAASGYIFAYNTMGWYRQAPGKERELVAAISRSGGSTYYADSVKGRFTISRDNAKNTVYLQMNSLKPEDTAVYYCAARYAPLDFRFDYWGQGTQVTVSS | high polyreactivity
QVQLVESGGGLVQAGGSLRLSCAASGYIFDIYDMGWYRQATGKERELVAAITDYADSVKGRFTISRDNAKNTVYLQMNSLKPEDTAVYYCNVKFLVQPVTSVIGDYWGQGTQVTVSS | low polyreactivity
QVQLVESGGGLVQAGGSLRLSCAASGYIFDRYAMGWYRQAPGKERELVATITRRGGSTYYADSVKGRFTISRDNAKNTVYLQMNSLKPEDSAVYYCAKRSPGTYIAMGYWGQGTQVTVSS | high polyreactivity
QVQLVESGGGLVQAGGSLRLSCAASGYIFERNAMGWYRQAPGKERELVAAITDDGDDTYYADSVKGRFTISRDNAKNTVYLQMNSLKPEETAVYYCAKDLYYGDYYYWGQGTQVTVSS | low polyreactivity
QVQLVESGGGLVQAGGSLRLSCAASGYIFFGNAMGWYRQAPGKERELVAAIRGRGTSTYYADSVKGRFTISRDNAKNTVYLQMNSLKPEDTAVYYFDADVVRSNFYGTFMYDYDYWGQGTQVTVSS | low polyreactivity

Sequence | polyreactivity (PSR sort gate)
QVQLVESGGGLVQAGGSLRLSCAASGYIFFNYGMGWYRQAPGKERELVAASTTIDGTTYYADSVKGRFTISRDNAKHTVYLQMNSLKPEDTAVYYCNADLYWLWYGEFDYWGQGTQVTVSS | high polyreactivity
QVQLVESGGGLVQAGGSLRLSCAASGYIFFRYAMGWYRQAPGKERELVAAINSSGDSTYADSVKGRFTISRDNAKNTVYLQMNSLKPEDTAVYYCNKDAPLFHDIIIDMDYWGQGTQVTVSS | low polyreactivity
QVQLVESGGGLVQAGGSLRLSCAASGYIFGLYAMGWYRQAPGKERELVASITGGGSTYADSVKGRFTISRDNAKNTVYLQMISLKPEDTAVYYCAAESTVRPYEHSGDYWGQGTQVTVSS | low polyreactivity
QVQLVESGGGLVQAGGSLRLSCAASGYIFGSYVMGWYRQAPGKERELVAAITRIGASTYFADSVKGRFTISRDNAKNTVYLQMNSLKPDDTAVFYCATDQGGYYENDYWGQGTQVTVSS | low polyreactivity
QVQLVESGGGLVQAGGSLRLSCAASGYIFGSYVMGWYRQAPGKERELVAAITRIGASTYYEDSVKGRFTISRDTAKNTVYIQMNSLKPDDTAVYDCATDQGGYYENDYWGQGTQVTVSS | low polyreactivity
QVQLVESGGGLVQAGGSLRLSCAASGYIFGVYAMGWYRQAPGKERELVAAISIGGSTYYADSVKGPFTISRDNAKNTVYLQMNSLKPEDTAVYYCAARGWIRKTSSAYGYWGQGTQVTVSS | high polyreactivity
QVQLVESGGGLVQAGGSLRLSCAASGYIFGVYAMGWYRQAPGKERELVAVITVTGGSTYYADSVKGRFTISRDNAKNTVYLQMNSLKPEDTAVYYCNTLEYLEYDYWGQGTQVTVSS | high polyreactivity
QVQLVESGGGLVQAGGSLRLSCAASGYIFKSYVMGWYRQAPGKERELVAAISWGGGRTYYADSVKGRFTISRDNAKNTVYLQMNSLKPEDTAVYYCAADTKVGNGIKFDYWGQGTQVTVSS | high polyreactivity
QVQLVESGGGLVQAGGSLRLSCAASGYIFKTYDMGWYRQAPGKETELVAAITASGGSTSYADSVKGRFTISRDNAKNTVYLQMNSLKPEDTAVYYCAAVYVRFKAERGVYLYPYDYWGQGTQVTVSS | high polyreactivity
QVQLVESGGGLVQAGGSLRLSCAASGYIFKWYAMGWYIQAPGKERELVAAITWSGDTTYYADSVKGRFTISRDNAQNTVYLQMNSLKPVDTAVYYCAVERDDQDYVYWGQGTQVTVSS | low polyreactivity
QVQLVESGGGLVQAGGSLRLSCAASGYIFKYYAKGWYRQAPGKERELVAAISWDGTDTYYADSVKGRFTISRDNAKNTVYLQMNSLIPEDTAVYYCNADYDVYGWRNYWGQGTHVTVSS | low polyreactivity
QVQLVESGGGLVQAGGSLRLSCAASGYIFLPYAMGWYRQARGKEREVVAAIRWSGGSTYYADSVKGRFTISRDNAKNTVYLQMNSLKPEDTAVYYCAAYYVARDRRYPKAYSYEYWGQGTQVTVLS | high polyreactivity
QVQLVESGGGLVQAGGSLRLSCAASGYIFLWYAMGWYRQAPGKERELVASISSGSTYYADSVKGRFTISRDNAKNTVYLLMNSLKPEDTAVYYCAAGWFASDYYYWGQGTQVTVSS | low polyreactivity
QVQLVESGGGLVQAGGSLRLSCAASGYIFPKNAMGWYRQAPGKERELVAAITGSGGSTYYADSVKGRFTISRDNAKNTVYLQMNSLKPEDTAVYYCAKRSWIEYDYWGQGTQVTVSS | low polyreactivity
QVQLVESGGGLVQAGGSLRLSCAASGYIFPPNAMGWYRQAPGKDRELVAAIRRSTGSTYYADSVKGRFTISRDNAKNTVYLQMNSLKPEDTAVYYCAAYYGYITFGYTYEYWGQGSQVTVSS | high polyreactivity
QVQLVESGGGLVQAGGSLRLSCAASGYIFPSYAMGWYRQAPGKERELVAVITTRGSTYYADSVKGRFTISRDNAKNTVYLQMNSVKAEETAVYYCAAAPYVYWFFVRPYGDDYWGLGTQVTVSS | high polyreactivity
QVQLVESGGGLVQAGGSLRLSCAASGYIFQKNAMGWYRQAPGKERELVAAISSGTDRTYYADSVKGRFTISRDNAKYTVYLQMNSLKPDDTAVYYCAARYWGGYYYWGQGTQVTVSS | high polyreactivity
QVQLVESGGGLVQAGGSLRLSCAASGYIFRAYAMGWYRQAPGKERELVAAITKRSGTTYYADSVKGRFTISRDNAKNTVYLQMNSLKPEDTAVYYCAAKTLYNSGTQDRAMGYWGQGTQVTVSS | high polyreactivity
QVQLVESGGGLVQAGGSLRLSCAASGYIFRSYAMGWYRQAPGKERELVAAITRSGGSTYYADSVKGRFTISRDNAKNTVYLQMNSPKPEDTAVYYCAVLPRGSNGMDYWGQGTQVTVSS | low polyreactivity
QVQLVESGGGLVQAGGSLRLSCAASGYIFSGYAMGWYRQAPGKEMELVAAISSNGGSTYYADSVKGRFTISRDNAKNTVYLQMNSLKPEDTAVYYCNRGLAARVGRGDYWGQGTQVTVSS | low polyreactivity
QVQLVESGGGLVQAGGSLRLSCAASGYIFSYYAMGWNRPAPGKERELVATISSGGSTNYADSVKGRFTISRDNAKNTVYLQMNSLKPEDTAVYYCAATIGHNGFYYWGQGTLVTVSS | low polyreactivity
